Source: article doi:10.64898/2025.12.12.693935

Biological target: CD82-StrepII3 (human) (UniProt P27701)
Assay: SEC

B1: CADM1-His6 (natural protein)
chain: QNLFTKDVTVIEGEVATISCQVNKSDDSVIQLLNPNRQTIYFRDFRPLKDSRFQLLNFSSSELKVSLTNVSISDEGRYFCQLYTDPPQESYTTITVLVPPRNLMIDIQKDTAVEGEEIEVNCTAMASKPATTIRWFKGNTELKGKSEVEEWSDMYTVTSQLMLKVHKEDDGVPVICQVEHPAVTGNLQTQRYLEVQYKPQVHIQMTYPLQGLTREGDALELTCEAIGKPQPVMVTWVRVDDEMPQHAVLSGPNLFINNLNKTDNGTYRCEASNIVGKAHSDYMLYVYDPPTTIPPPTTTTTTTTTTTTTILTIITDSRAGEEGSIRAVDHAVIGGVVAVVVFAMLCLLIILGRYFARHKGTYFTHEAKGADDAADADTAIINAEGGQNNSEEKKEYFI
**Q.** Which stoichiometry N does the source give for B1 here?
**A.** The stoichiometry N was 1.
